Experimental data reported in article PMC4164784, “4E-BPs require non-canonical 4E-binding motifs and a lateral surface of eIF4E to repress translation” (Nature Communications, 2014).
Positions count from the first letter of the chain named. No end group written: not given here.

Legend:
eIF4E (residues 69–248) = assay: MBP pull-down of purified eIF4E (69–248); assay type: binding, Drosophila melanogaster; conditions: MBP- and GB1-tagged fragments, 1 h at 4 °C, SDS–PAGE Coomassie, no eIF4G present
Description: In Fig. 2c, eIF4G (residues 578–650) and the C+NC peptides of CUP, Thor and 4E-T were expressed with a N-terminal MBP and a C-terminal GB1 tag. The bacterial cells were resuspended in 5 ml of lysis buffer containing 50 mM HEPES (pH 7.2), 200 mM NaCl and 2 mM DTT and lysed by sonication. Purified eIF4E (residues 69–248) was added to the cleared lysates (40–80 μl), adjusted to 0.3 ml with lysis buffer and incubated with 30 μL of amylose resin for 1 h at 4 °C. The beads were washed three times with lysis buffer and eluted with 64 μl of the same buffer containing 25 mM maltose. The proteins were analyzed by 15% SDS–PAGE followed by Coomassie blue staining.

[1] = biological target: T1, eIF4E–eIF4G complex (eIF4E WT; eIF4G residues 578–650) (Drosophila melanogaster, UniProt P48598); assay: Competition assay, displacement of GST-eIF4G from preassembled eIF4E (WT)–eIF4G complexes; assay type: biochemical; conditions: Fig. 5a,c; fivefold molar excess of MBP-tagged competitor, 30 min at 4 °C, m7GTP or Strep-Tactin pull down
T1 construct: full-length eIF4E (WT or the II-AA mutant) containing an N-terminal SNH-tag was coexpressed; made in house; host or cells: E. coli BL21 Star (DE3), coexpression
T1 sequence (P48598 1-248 isoform P48598-2): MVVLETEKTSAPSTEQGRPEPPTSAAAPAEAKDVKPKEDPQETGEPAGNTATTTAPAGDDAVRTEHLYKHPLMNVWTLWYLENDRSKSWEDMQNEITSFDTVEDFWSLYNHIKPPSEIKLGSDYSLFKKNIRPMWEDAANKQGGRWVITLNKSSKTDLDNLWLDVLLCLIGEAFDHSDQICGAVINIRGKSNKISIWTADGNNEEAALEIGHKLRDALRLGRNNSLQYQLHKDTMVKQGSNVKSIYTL
Description: For the competition assays shown in Figs 5a,c and 6a,b, complexes containing SHN- or MBP-tagged eIF4E (WT or II-AA mutant) bound to GST-eIF4G (residues 578–650), GST-Thor (full length), GST-4E-T (residues 1–58) or GST-CUP (311–440) were obtained by coexpressing the corresponding proteins in E. coli BL21 (DE3) STAR cells (30 ml culture). The cells were resuspended in lysis buffer (5 ml) that was supplemented with EDTA-free protease inhibitor (Roche) and 1 mg ml^−1 lysozyme and lysed by sonication. The cleared lysates were incubated with 400 μl of Protino Glutathione Agarose 4B (Macherey-Nagel) for 1 h. The beads were washed three times with lysis buffer, and the proteins were eluted after 10 min of incubation with lysis buffer containing 25 mM L-glutathione. The protein complexes were stored at −20 °C or used in competition assays.
The purified recombinant complexes were mixed with excess amounts of the indicated purified competitor proteins (Fig. 5c) or with bacterial lysates expressing the competitor proteins (Figs 5a and 6) and incubated for 30 min at 4 °C. After incubation, 20 μl of immobilized γ-Aminophenyl-m^7GTP or Strep-Tactin Sepharose (IBA), were added to the samples and incubated for another 40 min at 4 °C. The beads were washed three times with lysis buffer and eluted with lysis buffer containing 2.5 mM desthiobiotin (Strep-Tactin Sepharose) or with 20 μl of SDS–PAGE loading buffer (Aminophenyl-m^7GTP beads). The proteins were analyzed by 10–15% SDS–PAGE followed by staining with Coomassie blue staining. […]

[2] = biological target: T2, SHN-eIF4E (full length, WT) (Drosophila melanogaster, UniProt P48598-2 1-248); assay: pull-down; competition: purified SHN-eIF4E–GST-eIF4G complex with fivefold molar excess of purified MBP-Thor, 30 min at 4 °C; Strep-Tactin beads; conditions: both partners purified
T2 construct: eIF4E, Drosophila melanogaster; also called SHN-tagged eIF4E; SNH-tagged eIF4E; not shown: Strep-NusA-His (SHN), N-terminal, kept
T2 sequence (looked up): T1 sequence (P48598 1-248 isoform P48598-2)

[3] = biological target: T3, SHN-eIF4E (full length, II-AA mutant) (Drosophila melanogaster, UniProt P48598-2 1-248, Ile96 to Ala (II-AA) | Ile112 to Ala (II-AA)); assay: pull-down; preassembled complexes of SHN-eIF4E (WT or II-AA) with GST-eIF4G, GST-CUP, GST-Thor or GST-4E-T (coexpressed, purified on glutathione agarose) recovered on Strep-Tactin beads; conditions: both partners purified
T3 construct: eIF4E, Drosophila melanogaster; also called SHN-tagged eIF4E II-AA; not shown: Strep-NusA-His (SHN), N-terminal, kept
T3 sequence (looked up): T1 sequence (P48598 1-248 isoform P48598-2) with I96A, I112A

[4] = biological target: T2, SHN-eIF4E (full length, WT); assay: as above; conditions: both partners purified
[5] = system: eIF4E W106A (dorsal surface mutant); conditions: known effect of W106A substitution; cited from earlier work
[6] = system: endogenous eIF4E and HA-tagged 4E-BPs in S2 cells; assay: Immunofluorescence localization in S2 cells; assay type: cell-based, Drosophila melanogaster
[7] = system: eIF4E II-AA (lateral surface mutant); assay: Coimmunoprecipitation with HA-eIF4E II-AA in S2 cells; assay type: cell-based, Drosophila melanogaster; conditions: HA-eIF4E II-AA vs WT, western blot
Description: The coimmunoprecipitations assays were performed as previously described. For the pull downs using m^7GTP beads, 25 μl of immobilized γ-aminophenyl-m^7GTP (C10-spacer—Jena Bioscience) beads was added to the cell lysates and the mixtures were rotated for 1 h at 4 °C. The beads were washed three times with NET buffer (50 mM Tris (pH 7.4), 150 mM NaCl, 1 mM EDTA and 0.1% Triton X-100). The bound proteins were eluted with 2 × SDS–polyacrylamide gel electrophoresis (SDS–PAGE) sample buffer and analyzed by western blotting (WB). All of the WB experiments were developed with the ECL western blotting detection system (GE Healthcare) as recommended by the manufacturer. The antibodies used in this study are listed in Supplementary Table 2.

endogenous eIF4E = assay: Coimmunoprecipitation / m7GTP pull-down with endogenous eIF4E in S2 cell lysates; assay type: cell-based, Drosophila melanogaster; conditions: western blot
Method in brief: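 S2 cell lysates expressing HA-tagged 4E-BPs (CUP, Thor, 4E-T), eIF4G or mutants, immunoprecipitated with anti-eIF4E or anti-HA antibodies, or pulled down with m7GTP beads for 1 h at 4 °C. Washes in NET buffer (50 mM Tris pH 7.4, 150 mM NaCl, 1 mM EDTA, 0.1% Triton X-100). Bound proteins detected by anti-HA/anti-eIF4E western blot; pre-immune serum and HA-MBP as negative controls.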

[8] = system: eIF4E II-AA mutant (full length); assay: GST/MBP pull-down of full-length eIF4E II-AA mutant, coexpressed in E. coli; assay type: binding, Drosophila melanogaster; conditions: recombinant CUP (311–440), Thor (full length), 4E-T (1–58) or eIF4G (578–650), WT or mutant, SDS–PAGE
Description: For the pull-down assays shown in Fig. 3 and Supplementary Fig. 6a, the full-length His6- or SHN-tagged eIF4E (WT or II-AA mutant) was coexpressed with GST or MBP-tagged protein fragments, including CUP (residues 311–440), Thor (full length), 4E-T (residues 1–58) or eIF4G (residues 578–650) in E. coli BL21 (DE3) STAR cells in autoinducing medium[44] overnight at 20 °C. The cells were resuspended in lysis buffer (20 mM Tris–HCl (pH 7.5), 100 mM NaCl, 1 mM DTT) supplemented with EDTA-free protease inhibitor (Roche) and lysed by sonication. The cleared lysates were incubated for 1 h with 20 μl of Protino Glutathione Agarose 4B beads (Macherey-Nagel) or amylose resin (New England Biolabs). The beads were washed three times with lysis buffer, and the bound proteins were eluted with lysis buffer containing 25 mM L-glutathione or 25 mM maltose for 15 min. The proteins were analyzed by 10–15% SDS–PAGE followed by Coomassie blue staining.

Molecule: CUP NC: CUP residues 362–376, non-canonical motif, MBP/GB1 fusion (IELEGRLRRMNIWRT; also: MBP/GB1 fusion; UniProt Q9VMA3 362-376, looked up, fragment)
- pull down of purified eIF4E (in words) (eIF4E (residues 69–248)): bind to eIF4E in the absence of eIF4G
- competition with eIF4G for eIF4E WT (in words) [1]: did not compete with eIF4G

B1: MBP-Thor (full length, WT) (natural protein, Drosophila melanogaster, UniProt Q9XZ56 1-117, looked up)
chain: MSASPTARQAITQALPMITRKVVISDPIQMPEVYSSTPGGTLYSTTPGGTKLIYERAFMKNLRGSPLSQTPPSNVPSCLLRGTPRTPFRKCVPVPTELIKQTKSLKIEDQEQFQLDL
notes: Thor, Drosophila melanogaster; not shown: MBP, N-terminal, kept
- binding result [2]: binds

B2: GST-CUP (residues 311–440) (domain or fragment, Drosophila melanogaster, UniProt Q9VMA3 311-440, looked up)
chain: VRPTTAPVVSSKPVKSYTRSRLMDIRNGMFNALMHRSKESFVMPRIATCDDIELEGRLRRMNIWRTSDGTRFRTRSTTANLNMNNNNNNECMPAFFKNKNKPNLISDESIIQSQPPQPQTEFQDPAIVNQ
notes: CUP, Drosophila melanogaster, residues 311–440; may be the same construct as m25; source: E. coli BL21 (DE3) STAR, coexpressed with SHN-eIF4E, complex purified on glutathione agarose
- binding result [3]: binds
- binding result [4]: binds

B3: CUP: Dm CUP (1–1117), Q9VMA3; residues 311–440 in pull-down assays (protein)
chain: MQMAEAEQENGAGALKIATNAGATDRPAHQQLPLPVEDQQDEVLTPAEKGKFEYPPPPPPPTPVQAPLATKATALNASQEHDDDEANSEKWEDPCAPPPPPPLPTSAFLATGLGYLKLPAFKLKDALEKAITKLEANKRTLKASPESSRSIKNKNVVALEMLPRRSNPETIGDGSMLASTSTAVMLQTKKPAVIVEMERRCKIINLLAKQNQILESISGEAIPMHGPSKHLHEDEGLTLQVLSARASTPYTQPSSMLSCTAVSCDLEHDSPRKQVASKEAVPEQQSSQVQQKRPPSTGIHKPGSLRAPKAVRPTTAPVVSSKPVKSYTRSRLMDIRNGMFNALMHRSKESFVMPRIATCDDIELEGRLRRMNIWRTSDGTRFRTRSTTANLNMNNNNNNECMPAFFKNKNKPNLISDESIIQSQPPQPQTEFQDPAIVNQRRIGSGRLNHSKWGYNDEDYHSYHNGKSQHMEEVNSKNSKNMTVLQFFDNGEISSQPQRRPNTPVMGMSINRSENDTLHSNESSEDLSRANENYVKRVMSGFLVVSKPKSRDVEDRHHRRYRNQNEEPEWFSCGPTSRLDTIELCGFDEDEEKMLKEGNKNHGLGETERETSKQKMDHKYKWTHAEPMGRSKYMPKHDTNNNHNVENMNNVMATEHQQQKEEKRPGSGRSFQFDKFNQSQQNYESSSYVNHQQPPQTQPQQMQQQSNTNTNNSKFMSFFANEGNSSSSSLNEFFKQAINQGHGNNPEQPKSLGHIGQMPSVDQLEAKWRRNSLNNVGETANKQTDNFQKLIGSLSSAKPQSQAVGYDAISNFIMQQQQYQQQQQKQHLIIQQQQQHTAFLASLQLKAILGRADTQLLLLRLTKGEISKHGLLVQLANPRLTDMDREAITAVLQFTNTQQQQQQHKQQLDMLSSTVIASQLQNLHNLAIVQQTLAARQQPQHNPQTQAPHQLSQEDLQAHANVIMRNAVMKRKIEEQTSKLINGGAKHQAQQQYLNRGQQRQARPDANSNALLHALISGGGNNHASGYPMNGQPQKHHSNLRFGDNQNFQSFESNQPHFATQYKQQYQQSQQQHPHQQPQQLNSLHQNNAGAVNSFNKAQMQAQSAISMLPNSGDEFH
modifications: left off: GFP, end not stated, kept
notes: Dm CUP (1–1117), Q9VMA3; residues 311–440 in pull-down assays
- binding to eIF4E W106A (in words) [5]: abolishes the binding
- nuclear accumulation of endogenous eIF4E upon LMB (in words) ([6]; S2 cells expressing 4E-BP or mutant, LMB 100 nM, 12 h): endogenous eIF4E accumulated in the nucleus
- localization of endogenous eIF4E (in words) ([6]; S2 cells overexpressing 4E-BP or mutant, −LMB): evenly distributed in the cytoplasm
- nuclear accumulation of 4E-BP upon LMB (in words) ([6]; S2 cells, LMB 100 nM, 12 h): nuclear accumulation
- localization of the 4E-BP (in words) ([6]; S2 cells, steady-state, −LMB): distributed evenly throughout the cytoplasm
- association with eIF4E II-AA (in words) [7]: disrupted the association
- interaction with endogenous eIF4E (in words) (endogenous eIF4E): interacted with endogenous eIF4E
- binding to eIF4E II-AA mutant (in words) [8]: pulled down comparable amounts of WT and mutant eIF4E
